These are literature values, as cited in PMC8249329.

The data set has as its target ACE2 (Homo sapiens) (UniProt Q9BYF1).

Chain of ACE2 (Homo sapiens) (Q9BYF1 18-740): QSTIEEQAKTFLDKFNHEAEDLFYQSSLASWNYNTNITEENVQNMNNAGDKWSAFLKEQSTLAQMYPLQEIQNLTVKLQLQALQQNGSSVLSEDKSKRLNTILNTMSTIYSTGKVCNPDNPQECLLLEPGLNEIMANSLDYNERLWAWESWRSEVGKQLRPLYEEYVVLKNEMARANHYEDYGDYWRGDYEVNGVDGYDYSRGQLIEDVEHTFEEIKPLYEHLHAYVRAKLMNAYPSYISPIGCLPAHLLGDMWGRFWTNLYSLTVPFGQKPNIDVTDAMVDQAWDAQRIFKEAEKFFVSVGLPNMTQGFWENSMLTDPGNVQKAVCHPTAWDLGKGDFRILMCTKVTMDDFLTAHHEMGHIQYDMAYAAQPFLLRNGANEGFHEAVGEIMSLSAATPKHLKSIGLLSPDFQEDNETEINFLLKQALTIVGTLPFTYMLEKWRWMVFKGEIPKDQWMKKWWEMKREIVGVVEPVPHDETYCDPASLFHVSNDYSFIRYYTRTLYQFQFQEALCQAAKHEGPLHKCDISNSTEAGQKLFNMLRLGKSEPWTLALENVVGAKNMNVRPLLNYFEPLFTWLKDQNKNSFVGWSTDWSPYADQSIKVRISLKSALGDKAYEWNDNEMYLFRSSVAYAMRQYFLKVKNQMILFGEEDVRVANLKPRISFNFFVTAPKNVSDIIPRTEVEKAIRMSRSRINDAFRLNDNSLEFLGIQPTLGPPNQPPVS
Chain of HCoV-NL63 spike RBD (Q6Q1S2 481-616): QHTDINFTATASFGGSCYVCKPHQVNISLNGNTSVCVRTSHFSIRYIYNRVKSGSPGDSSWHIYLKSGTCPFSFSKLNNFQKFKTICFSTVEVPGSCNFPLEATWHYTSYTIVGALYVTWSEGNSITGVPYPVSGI

One may read the Kd as the free concentration of one partner at which half of the binding sites on the other are occupied at equilibrium, for simple one-to-one binding. For the substance “HCoV-NL63 spike RBD (from UniProt Q6Q1S2)”, the Kd was 35 nM.
